The target of assay [1] is Clostridium difficile toxin B (TcdB) (Clostridium difficile, UniProt P18177 2-2366).
The target in assay [2] is T1, Clostridium difficile toxin A (TcdA) (Clostridium difficile, UniProt P16154 1-2710).
T1 construct: mature
Kind of assay: ELISA on plates coated with TcdA, HRP-conjugated detection antibody, A450.

One molecule from patent US20190225675A1 (TUFTS UNIVERSITY, published 2019) can be followed below.

T1 sequence (P16154 whole entry): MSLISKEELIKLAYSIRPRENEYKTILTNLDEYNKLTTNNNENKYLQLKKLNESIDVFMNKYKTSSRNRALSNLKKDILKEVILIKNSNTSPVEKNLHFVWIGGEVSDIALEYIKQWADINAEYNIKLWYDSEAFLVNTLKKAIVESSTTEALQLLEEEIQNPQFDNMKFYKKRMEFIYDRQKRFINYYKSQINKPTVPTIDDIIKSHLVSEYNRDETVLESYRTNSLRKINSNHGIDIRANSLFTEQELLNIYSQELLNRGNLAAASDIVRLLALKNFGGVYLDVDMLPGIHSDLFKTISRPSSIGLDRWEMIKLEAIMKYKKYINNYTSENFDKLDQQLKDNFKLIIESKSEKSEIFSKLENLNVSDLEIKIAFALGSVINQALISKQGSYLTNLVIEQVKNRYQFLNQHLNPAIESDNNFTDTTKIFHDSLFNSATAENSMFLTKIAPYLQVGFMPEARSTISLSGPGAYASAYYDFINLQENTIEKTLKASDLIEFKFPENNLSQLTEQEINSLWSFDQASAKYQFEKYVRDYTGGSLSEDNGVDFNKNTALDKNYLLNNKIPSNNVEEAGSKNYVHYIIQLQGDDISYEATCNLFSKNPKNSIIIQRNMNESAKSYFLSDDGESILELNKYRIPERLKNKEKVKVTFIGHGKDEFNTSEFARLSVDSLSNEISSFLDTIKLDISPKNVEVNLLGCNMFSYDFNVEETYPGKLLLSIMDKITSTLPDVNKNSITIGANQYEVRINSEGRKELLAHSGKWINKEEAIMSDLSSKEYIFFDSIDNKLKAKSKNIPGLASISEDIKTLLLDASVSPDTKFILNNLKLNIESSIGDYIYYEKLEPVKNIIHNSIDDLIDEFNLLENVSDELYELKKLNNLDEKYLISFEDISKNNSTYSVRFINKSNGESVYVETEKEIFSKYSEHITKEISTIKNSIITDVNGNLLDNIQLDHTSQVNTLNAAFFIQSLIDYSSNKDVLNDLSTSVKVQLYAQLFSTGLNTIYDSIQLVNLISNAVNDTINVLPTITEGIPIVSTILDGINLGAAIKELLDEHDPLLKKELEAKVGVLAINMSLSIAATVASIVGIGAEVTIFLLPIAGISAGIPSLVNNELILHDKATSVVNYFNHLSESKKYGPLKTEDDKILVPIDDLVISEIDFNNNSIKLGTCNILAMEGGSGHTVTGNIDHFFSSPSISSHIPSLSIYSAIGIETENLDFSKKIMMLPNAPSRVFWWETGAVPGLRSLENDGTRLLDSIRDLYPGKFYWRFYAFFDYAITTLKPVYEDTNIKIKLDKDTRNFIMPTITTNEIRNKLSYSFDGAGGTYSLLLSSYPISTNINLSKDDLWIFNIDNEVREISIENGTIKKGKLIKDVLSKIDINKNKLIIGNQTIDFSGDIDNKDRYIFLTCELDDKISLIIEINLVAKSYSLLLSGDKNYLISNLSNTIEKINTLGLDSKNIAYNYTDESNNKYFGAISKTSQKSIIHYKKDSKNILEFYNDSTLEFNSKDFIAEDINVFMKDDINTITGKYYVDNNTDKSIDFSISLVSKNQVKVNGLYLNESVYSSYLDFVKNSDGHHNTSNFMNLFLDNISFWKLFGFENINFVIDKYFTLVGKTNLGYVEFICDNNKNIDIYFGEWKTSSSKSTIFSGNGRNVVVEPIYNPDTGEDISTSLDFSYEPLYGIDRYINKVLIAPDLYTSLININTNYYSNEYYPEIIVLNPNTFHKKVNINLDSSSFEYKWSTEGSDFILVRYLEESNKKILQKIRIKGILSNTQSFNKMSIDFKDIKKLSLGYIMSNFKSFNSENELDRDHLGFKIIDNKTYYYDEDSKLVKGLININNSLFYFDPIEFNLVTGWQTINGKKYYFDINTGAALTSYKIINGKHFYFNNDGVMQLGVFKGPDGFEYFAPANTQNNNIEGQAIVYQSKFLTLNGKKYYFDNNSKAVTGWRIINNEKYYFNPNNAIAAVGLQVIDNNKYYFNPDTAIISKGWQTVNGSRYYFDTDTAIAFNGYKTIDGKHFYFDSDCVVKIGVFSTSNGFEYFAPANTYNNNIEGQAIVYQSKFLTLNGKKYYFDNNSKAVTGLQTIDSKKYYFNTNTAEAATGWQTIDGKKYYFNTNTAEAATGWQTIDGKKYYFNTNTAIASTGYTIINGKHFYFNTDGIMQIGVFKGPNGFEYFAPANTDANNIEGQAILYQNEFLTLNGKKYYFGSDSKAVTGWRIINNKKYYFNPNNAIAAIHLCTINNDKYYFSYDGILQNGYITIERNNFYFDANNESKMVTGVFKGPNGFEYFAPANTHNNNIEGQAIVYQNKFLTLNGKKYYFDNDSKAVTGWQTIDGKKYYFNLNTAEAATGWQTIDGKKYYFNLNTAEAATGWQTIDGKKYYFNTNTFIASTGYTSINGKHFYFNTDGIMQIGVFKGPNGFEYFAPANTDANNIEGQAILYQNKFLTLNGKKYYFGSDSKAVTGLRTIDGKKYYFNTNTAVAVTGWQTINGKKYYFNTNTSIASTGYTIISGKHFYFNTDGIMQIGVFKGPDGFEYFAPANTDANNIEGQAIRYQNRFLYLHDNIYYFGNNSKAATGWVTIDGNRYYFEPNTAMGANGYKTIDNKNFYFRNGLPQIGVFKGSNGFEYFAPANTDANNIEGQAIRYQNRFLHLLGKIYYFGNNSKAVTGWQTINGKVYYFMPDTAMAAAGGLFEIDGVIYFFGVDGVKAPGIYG
Chain of Clostridium difficile toxin B (TcdB) (P18177 2-2366): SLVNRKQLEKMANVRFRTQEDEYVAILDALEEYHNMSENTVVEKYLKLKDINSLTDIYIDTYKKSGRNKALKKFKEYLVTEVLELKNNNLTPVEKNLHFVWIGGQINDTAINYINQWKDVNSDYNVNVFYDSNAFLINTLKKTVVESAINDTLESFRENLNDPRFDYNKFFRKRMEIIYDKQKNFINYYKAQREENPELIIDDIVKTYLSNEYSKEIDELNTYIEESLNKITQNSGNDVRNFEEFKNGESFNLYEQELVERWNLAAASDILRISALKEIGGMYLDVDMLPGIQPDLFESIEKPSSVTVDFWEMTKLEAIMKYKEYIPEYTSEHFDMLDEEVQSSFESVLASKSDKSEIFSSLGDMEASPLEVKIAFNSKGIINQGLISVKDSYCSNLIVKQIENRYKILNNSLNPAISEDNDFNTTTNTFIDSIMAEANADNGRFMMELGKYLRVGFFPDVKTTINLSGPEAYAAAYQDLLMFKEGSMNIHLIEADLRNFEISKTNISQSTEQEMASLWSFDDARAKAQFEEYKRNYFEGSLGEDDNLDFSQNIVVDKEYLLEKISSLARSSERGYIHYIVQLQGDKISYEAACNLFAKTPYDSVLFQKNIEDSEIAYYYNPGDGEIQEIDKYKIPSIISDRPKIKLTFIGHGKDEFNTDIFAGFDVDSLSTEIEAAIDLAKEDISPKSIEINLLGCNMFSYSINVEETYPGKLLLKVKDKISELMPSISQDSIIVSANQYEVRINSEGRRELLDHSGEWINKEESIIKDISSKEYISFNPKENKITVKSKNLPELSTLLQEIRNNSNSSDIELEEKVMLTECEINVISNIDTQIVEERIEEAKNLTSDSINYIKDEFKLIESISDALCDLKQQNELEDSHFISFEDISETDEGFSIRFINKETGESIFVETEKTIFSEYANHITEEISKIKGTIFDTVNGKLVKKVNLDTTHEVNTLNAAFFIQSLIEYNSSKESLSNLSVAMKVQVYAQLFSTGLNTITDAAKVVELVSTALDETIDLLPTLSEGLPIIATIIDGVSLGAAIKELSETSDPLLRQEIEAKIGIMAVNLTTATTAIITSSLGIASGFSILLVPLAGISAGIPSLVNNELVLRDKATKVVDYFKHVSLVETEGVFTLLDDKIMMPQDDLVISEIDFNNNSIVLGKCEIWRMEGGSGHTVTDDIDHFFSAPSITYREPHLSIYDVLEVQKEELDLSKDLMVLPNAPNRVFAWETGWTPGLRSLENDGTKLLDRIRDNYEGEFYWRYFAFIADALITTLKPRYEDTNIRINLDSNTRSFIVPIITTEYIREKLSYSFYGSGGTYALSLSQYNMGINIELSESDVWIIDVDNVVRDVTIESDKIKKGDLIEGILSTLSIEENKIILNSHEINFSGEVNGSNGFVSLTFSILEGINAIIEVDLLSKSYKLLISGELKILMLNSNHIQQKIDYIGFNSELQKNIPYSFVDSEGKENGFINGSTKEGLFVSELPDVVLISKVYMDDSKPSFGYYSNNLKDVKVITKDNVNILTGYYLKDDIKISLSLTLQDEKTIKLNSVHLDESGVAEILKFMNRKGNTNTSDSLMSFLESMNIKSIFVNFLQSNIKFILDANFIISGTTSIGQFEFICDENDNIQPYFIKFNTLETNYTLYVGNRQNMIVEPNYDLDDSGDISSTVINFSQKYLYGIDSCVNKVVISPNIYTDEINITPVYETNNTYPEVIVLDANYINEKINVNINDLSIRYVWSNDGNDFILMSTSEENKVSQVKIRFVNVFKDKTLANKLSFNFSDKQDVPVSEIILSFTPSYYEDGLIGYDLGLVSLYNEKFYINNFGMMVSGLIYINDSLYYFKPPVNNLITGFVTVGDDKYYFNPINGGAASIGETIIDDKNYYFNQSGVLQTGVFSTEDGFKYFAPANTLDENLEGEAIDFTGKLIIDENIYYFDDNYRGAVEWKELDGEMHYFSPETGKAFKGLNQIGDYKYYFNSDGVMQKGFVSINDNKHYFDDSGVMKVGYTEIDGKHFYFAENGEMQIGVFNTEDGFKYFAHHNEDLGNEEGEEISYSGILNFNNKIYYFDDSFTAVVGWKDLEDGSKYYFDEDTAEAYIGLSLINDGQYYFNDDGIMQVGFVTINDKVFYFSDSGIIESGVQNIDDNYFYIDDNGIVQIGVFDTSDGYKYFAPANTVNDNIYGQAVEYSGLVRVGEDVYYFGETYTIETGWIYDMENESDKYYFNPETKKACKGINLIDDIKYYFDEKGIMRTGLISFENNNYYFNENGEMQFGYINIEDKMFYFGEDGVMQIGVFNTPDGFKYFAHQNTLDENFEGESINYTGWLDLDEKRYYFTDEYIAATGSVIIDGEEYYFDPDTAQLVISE

B1: VNA-TcdB (toxin B-binding heterodimer, 5D+E3) (other)
chain: QGVQSQLQLVESGGGLVQPGGSLRLSCEASGFTLDYYGIGWFRQPPGKEREAVSYISASARTILYADSVKGRFTISRDNAKNAVYLQMNSLKREDTAVYYCARRRFSASSVNRWLADDYDVWGRGTQVAVSSEPKTPKPQGGGGSGGGGSGGGGSQGVQSQVQLVESGGGLVQTGGSLRLSCASSGSIAGFETVTWSRQAPGKSLQWVASMTKTNNEIYSDSVKGRFIISRDNAKNTVYLQMNSLKPEDTGVYFCKGPELRGQGIQVTVSSEPKTPKPQ
One may read the EC50 (read off the curve) as the midpoint of the concentration-response curve. B1: the “EC50 (read off the curve)” value in assay [1] was about 0.3 nM. In assay [2], the binding result is “no binding (tested: 125 nM)”.
